Reference: patent US20110027321

Biological target: blue casein substrate (4-16% BlueCasein zymogram gel, Novex)

B1: recombinant 6 histidine tagged C. trachomatis HtrA polypeptide (serovar L2), purified from E. coli BL21 (DE3) (pET28-CtHtrA/L2) (protein)
chain: SPMLGYSASKKDSKADICLAVSSGDQEVSQEDLLKEVSRGFSRVAAKATPGVVYIENFPKTGNQAIASPGNKRGFQENPFDYFNDEFFNRFFGLPSHREQQRPQQRDAVRGTGFIVSEDGYVVTNHHVVEDAGKIHVTLHDGQKYTAKIVGLDPKTDLAVIKIQAEKLPFLTFGNSDQLQIGDWAIAIGNPFGLQATVTVGVVSAKGRNQLHIVDFEDFIQTDAAINPGNSGGPLLNINGQVIGVNTAIVSGSGGYIGIGFAIPSLMAKRVIDQLISDGQVTRGFLGVTLQPIDSELATCYKLEKVYGALVTDVVKGSPAEKAGLRQEDVIVAYNGKEVESLSALRNAISLMMPGTRVILKIVREGKTIEIPVTVTQIPTEDGVSALQKMGVRVQNITPEICKKLGLAADTRGILVVAVEAGSPAASAGVAPGQLILAVNRQRVASVEELNQVLKNSKGENVLLMVSQGDVVRFIVLKSDHHHHHHE
protease activity in zymogram gel (zone of clearing): Recombinant C. trachomatis HtrA degradation (i.e. proteolysis) of the blue casein substrate is visualized as a zone of clearing at ˜49 kDa
